Data taken from a protein production outcome set (Wang et al. 2014).

Test: label from the status in PepcDB records

Sequence	protein production
MNIAPVVDSLSAPAMLEELKQSPPWLRLSLLFPLFFLNGWLIYKAMGFLQPLSSLLVAAALLAFLLDIPVRILVEKGLKRPWAVASVLLIALVVISLFLLIVIPLAIDQLGQLLDNLPGWFRSGNAQLLMLQAWVNEHYANLQVDLQPLISQAIEKLSRILNSFGNQLLGLVGVTISTSINGLILLVLTIFLVLGGEKIWDGIFSWFPHPWQRDLQNLIRDTFEGYFATQAILAGILSVAQMVVFTLLQAPYAILFAITIGLSTLIPFASALSIIVISLLLMLENFWLGVKILLAAVIVGQINDNVISPRLMGNRTGLNPAWIIVSLFVGSKLGGVLGLLVAVPLASVIKATSDRLRGLPKKSGEQPAEVSVVST	failed
MFNKVAFMNIPMMDLIMIVIAIIITIGSFLFIAYLIFKYSKIKKQVKIIREVKINLPKMLKSNMIKNSFLIISLLCFYFGMLYIAGELVISHILFIAICWIVVFLYIIIKGETRGYICEEGLLVSGVLYSWKEFKDVKIEDNYIILTTPIHKIVIKKEKGVENILKNYLKRN	failed
MSLARCERLRGAALRDVLGRAQGVLFDCDGVLWNGERAVPGAPELLERLARAGKAALFVSNNSRRARPELALRFARLGFGGLRAEQLFSSALCAARLLRQRLPGPPDAPGAVFVLGGEGLRAELRAAGLRLAGDPSAGDGAAPRVRAVLVGYDEHFSFAKLREACAHLRDPECLLVATDRDPWHPLSDGSRTPGTGSLAAAVETASGRQALVVGKPSPYMFECITENFSIDPARTLMVGDRLETDILFGHRCGMTTVLTLTGVSRLEEAQAYLAAGQHDLVPHYYVESIADLTEGLEDEGHHHHHH	not failed
MLTTNASSKIFSKASTAELVGHTRKVHCLSWNPKGGLLGSGGVDCVARIWDVEKLQQKAELEGHTSSIEQLKWDPTANVFFVSASLDHKVLFWDLRARNSEPVASVETQGENINLAWSQDGVYCAVGDKDDNLSFIDVRKFDFFERFQFAEEVNEFKWSPSGPFFFMTLGKEVLVFRWPTMEQQLRLQVHADRCYCLEFDRSGRYFALGGADSIISLWETEYMLCTWTVDRLEYPIRTISFSHDGQFIAAGSEDSVIDISDILNGRQTYALGVKGATNVVAWHPSRHLLAYATEEEYSRDGVAIHLYGTISKDNI	failed
MRHMSGDHAALVLGAGAGRRLGRSKQLLMRDGEPLLRRAARIALLTAPRRCVVVLGADADTLSEVLQDLDIEILRHPDWSEGMGSSLAALRRHVQGDPALRRSLILGCDQPALDAPHLRSLLEEADRAVSGCATSGYSGVRGIPAVVTHTAWADVPLQADSGLRGLFASLDMQSLGCVSAPALALDIDTPADLATAQQRGWVDAELEHHHHHH	failed
MLTTLQNIMKLPNEIDEYLASRNFSENTRSNYHYDLVSLQAFFEDKSLTTENLELYKIQISNLSPAAQRRKISSANQYLLFLYQRQKVDQYFKIKQVVQKKSQTAQSYHPMIKEFPEFYGPLTCPGQFLALLILEFGLNFAEIQKLKWENFNWNFKYLTIEKAGIKRVLPIREKFAIRVKAINNADELFAKSRQFLYTELKKFTNYSSKEIREQYILHQVKAGKSIYELATLLGLTTITTLEKYYR	failed
MVKPLRLNDRHQQILRATVQHYIATAEPVGSHTLAQEYQFAVSSATIRNALGQLEKAGLLYQPHVSAGRVPSDSGYRIYVDNLLTWSDRQSRTVKQRLENEINGDNWHFEALIQRMGQILAGLSGYIALITFPQTETVQLRHLQLMLLPSHQILIILVTDSYHTHSATLDLPAAMEAKEEGELEQELAIFSNFLNAQLRGKNLSELSHLNWQELDQKFSIYADFLKGLQQQIKPLLQRRMAGPLVVHGVSKVIQQPEFSQLEQVQMLLSLLEQEQDKLFSLLFDPDNYGDNLANLGQEMNLLTGETMPKTRPVVTIRIGAENPLESMHPCTLVSAIYRQQEIPMGSVSILGPTRMVYQQTIPLVEQAAECLSEALSKN	failed
MDADHLQRIFDEAVQAHGEGRLDEAEAGFRAVLEVLPHEGEALFGLGLTLMGLRRFSEAIPPLKAAAAEPGAEPVRFLCLAQGLYMTGAFAEAAETFAAVAHQDGFNDGARLTWARSAAYAALDDTDADSALALYGQIAGPVAEDLDTVAREGFSTLVAFERLAAARKLGQWLEARAPDDAIRAHELRVLTDPQIDRAPPAYVEALFDAFAERFDHQLLDNLEYQTPTLLAEMIGVADRRFTHMLDLGCGTGLAGPPLRARVARLTGVDLSTAMLAKAAERGGYDALVHAEAVAFLRETPDRFDLIVAADVFSYLGDLGDILAAAAGALSDDGLLAFSVEQGETWWRLLPSARYAHGDDYVRAAGAGVGLEVIQHRQTPLRRQADAAIPGGLYVLRKIRAA	failed
MLIKLTGGTVYDPANGIDGQVRNLFIRDGRIVHSLNGATPDQEYDLRGKVVMAGAIDMHTHIGGGKVT	failed
MRNFFKKMVVLSVGCLTLPLWAQPHREGVQQKLQSLSVEQKIDLLCARYPGVPQEGLAKYDWWSECLHGVARAGKATVFPKPIGMGSTWDAELIHRIGIAIGDEARAKHHQDVREHGYSDRHYGLTFFSPTLNIARDPRWGRTTECFSEDPLLTSDMGVSFIKGMQGDDPYYLKTVATAKHFVANNEENRRLGGSAIVDEVSLREYYFPAFRDAVVRGYVKSIMGAYNALNGIPCCANSMLLTDVLRKEWGFEGVVISDGSAIDKLYTHHKYVPNLEEGAALALRAGCDMSLRDEYRPGLKKAYHKGLITEHDLNVAVARVLDLRARLGLDKGTDQGNPYKNTPYSVVECERHQQLALEAAEKSMILLKNEGVLPLKPDASKRKLNIALIGDAFKSVYYGDYSGMPEYNRTLLEAFTHDAGRLANLTWMGERSQEVLIPSHLLTQTADQAYDGILGFTARYYEGTKVGKEAALTRQDLTLDFKLAEDAALKQKEVRAASWTSTLKAPQSGRYMFYLEASGRGKLFINGKQMLSKYNGHRFKTSCEVVLKEGEEYKLKVDCEELNTQMPIRLTWTPPFKGTDDTPAKLAKRSDVAILFVRDDNSSEGRDRKNLNLSDAHIELIKEVCAANPKTILLLGGGSTLALKDIIEGPAALLNVWIAGQGEAQAISNILLGKTNPSGKTAVTFCADESELPALDDYDITHGRSYQYFKGKELFPFGFGLSYTNYQYGKPKMKHRKLQQGDKVEVSAEIRNTGKYAGEEVVQCYLSSPTWQKQGLKQKLVGYQRVSLKPGQAKTVKFCIQEEQLKRWNKDKDEWGLNGNQYNLSVVPCSNQQNAVSFTYR	failed
MNDGDGTPAAAARERRFGPLGTALVIIPTYNEAENIKAIVTRVREAVPEAHVLVADDNSPDGTGKLADELAAADDHVQVMHRKGKEGLGAAYLAGFRWGLEHGYGVLIEMDADGSHQPEELPRLLTALKGADLVLGSRWVPGGRVVNWPKSREIISRGGSMYSRIALDLPLRDITGGYRAFRRETLEGLGLEEVASQGYCFQVDLARRAIKAGYHVVEVPITFVERELGDSKMSRDILVEALWRVTTWGVGERVGKVLGRDRRSGTAADGQTASSGTDGRTASSDRSTDSLDESAKASDAKA	failed
MPEIHQSIAQHYHERTKYDPETIASKSQRLDWAKQPVPFKEYKIGSAIDLKPYLQETPEVFVNDTNGQWWQRLSRLLFRSYGLTARMPSMGNTVYLRAAPSAGGLYPAEVYVVSRGTPLLSPGLYNYQCRTHSLIHYWESDVWQSLQEACFWHPALESTQLAIIVTAVFYRSAWRYEDRAYRRICLDTGHLLGNIELSAAITDYRPHLIGGFIDEAVNDLLYIDPLQEGAIAVLPLADLLDIQQNISPGCTALPSATETNYPQVPDGELLKYFHHHTQISASITGKLNLPTVIQEKSLEDKYNFPFCLKISTVSAPIYWGENLSDLEITMHKRRSTRAYNGEELTFDELKALLDFTYQPQNYIDQSLDNSPDYFDLNLIETFIAVCGVQGLEAGCYYYAPKAQELRQIRFKNFRRELHFLCLGQELGRDAAAVIFHTSDLKSAIAQYGDRVYRYLHMDAGHLGQRLNLAAIQLNLGVSGIGGFFDDQVNEVLGIPNDEAVIYITTLGRPR	not failed
MIAFQALQAISPIDGRYRNKVEVLSRYFSEGSLIRYRVKVEVEYFIALCNELPSLKDVCPPSLEEELRRIYQDFSEKDAVRVKEIEAVTNHDVKAVEYFLKERFEAMGIRDAKEFIHFGLTSQDVNNTAFPMMIREAMTEVYLPALQELVEQLHAYALQWKDVPMLAKTHGQPASPTRLGKEIEVFVYRLRKQIDLLLEVPHSAKFGGATGNFNAHHVAYPDHDWSDFGRRFVTSLGLEREELTTQISNYDNMAALFDACCRINVILIDLCRDFWQYISMEYFKQKIKAGEVGSSAMPHKVNPIDYENAEGNLGIANAIFEHLSRKLPISRLQRDLTDSTVLRNVGTPLAHSLIAVTSIAKGLGKLLLNEAALDRDLQNNYAVVAEAIQTILRREGYPNPYETLKALTRTNETVTAESIASFIEALDIDETVKEEMRRISPSNYVGI	failed
MPFLLTLLAFLRVLRRLLKDEKFRALLYITAFTLAIGTFFYHSVEGWDWLDSLYFSVITLTTVGYGDFTPKTNIGKFFTIIYIFIGLGILVAFVTPIGEYIVDRRLDRIQEREQKKEIPENEFDFSGVIGKLRGKK	failed
MPPRKKPKSSALKSNKQSSANHSSQPSTFGIQQLFLRHIQNSQSTSNSHTSTADPVDQQNVNGLASDTAVLTPQNPLGTSNEKPDESKDMDQQLTEASPKISKNLKRFSPGMLIKQSQDDCGGEITWKISPVNERLRAAAKNIPKMMDLTENSLGKQCPTSGITSKVEQWLSSPSKKASKRPAFATNRVMERVNPSPDAEFEIVNTSSSGNSPFQTPPSLSCPHNKLPCTVTCSGACGSMGAGQHKKALLELLDQVEDVIAVDDKTTDDVGIVMPQARVKDDIISSVVDCAVDEGPVSLPKMQNSINPDSYFLVLEVSEKRGSGSSSKGQCPYKVLRLLDEHTGVECALYLWDEWFYSTVSPGDSINVIGEFDGDGKCDVDRQNNFLIVHPDTLVAGTRVAASFGCPRRTVLDERLRSNEHATVALLGTLQHQVFQAGLSQESPSVDGLQEYASTVIEKSIESLYACGVHEGDVRSTLFKAIPKMLNWIEHFRYSKDSEVSKVDFGSTIGKKAVKVSEVIDIEEMSWAPKYGLKGMIDASVRVIVESDMNTVNEKIMPLEFKSGKAPSGQSSIEHSAQVILYTLLMSERYLKHIDNGLLYYLQSDQTQGISVQRSDLVGLIIRRNELANDILVASTTQQLPPMLRADGGNTESSGLGDVFDTHVSHLSTLHFNFLRHWDRLIDLEGREMQLLRKDIAHPHGSKGSHSASYLSSMVLDVTNGFQHHNSHKETRFIYRFVRQKSSESRERVTSEDMIRTGNLATDDLDCKLRTGDRVILRTEVSHLTVANGIIADISRTHISVSLSKRLRLPWSEPSSEVSNLSHELWRIYKDEFMTSFSVMRFNLMQLFVQNGHNIRKMIVDLEPPRFDNGSILSQDPAISYIWSEKSLNNDQRQAILKILTAKDYALILGMPGTGKTSTMVHAVKALLIRGSSILLASYTNSAVDNLLIKLKAQGIEFLRIGRDEAVHEEVRESCFSAMNMCSVEDIKKKLDQVKVVASTCLGINSPLLVNRRFDVCIIDEAGQIALPVSIGPLLFASTFVLVGDHYQLPPLVQSTEARENGMGISLFRRLSEAHPQAISVLQNQYRMCRGIMELSNALIYGDRLCCGSAEVADATLVLSTSSSTSPWLKKVLEPTRTVVFVNTDMLRAFEARDQNAINNPVEASIIAEIVEELVNNGVDSKDIGIITPYNSQASLIQHAIPTTPVEIHTIDKYQGRDKDCILVSFVRSREKPRSSASSLLGDWHRINVALTRAKKKLIMVGSQRTLSRVPLLMLLLNKVKEQSGILNLLPGDLKP	failed
MAVPSFFTLMNLLCGFMALTQVADAAFVLACWLIVLAGFFDLLDGVMARLTGADSPFGVQLDSLSDIVSFGVAPSFLLYGYVLDTFNPLGMIVAALPALCGAVRLARYNMTADESDKEGFEGLPIPGQAIAVVALILAAENSAWDGRFALDSLRVVLPVVIVLSGLMVSSIRFDAIPMPSLEAVRTHPSKIAAYGLAGLLIVGLQERGLLIVLTAYLLHGVGRALYKLMRALVAPVPDERLGS	failed
